{"source": "patent US10202584B2", "about": "“Red-shifted luciferase-luciferin pairs for enhanced bioluminescence” (The Regents of the University of California, priority 2016, dated 2019)", "molecules": {"B1": {"name": "NanoLuc: luciferase engineered from a 19 kDa domain of Oplophorus luciferase (SEQ ID NO: 1) (protein)", "chain": "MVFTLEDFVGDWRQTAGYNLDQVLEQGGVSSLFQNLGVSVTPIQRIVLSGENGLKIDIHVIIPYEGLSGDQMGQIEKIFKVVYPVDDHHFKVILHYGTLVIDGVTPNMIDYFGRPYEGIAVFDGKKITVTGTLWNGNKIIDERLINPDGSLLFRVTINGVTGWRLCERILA", "modifications": "Engineered mutant of Oplophorus gracilirostris polypeptide"}}, "tested_on": "HEK 293T cells", "test": "Bioluminescence relative to FLuc with P2A bicistronic vectors in HEK 293T cells", "type": "cell-based, Human", "settings": "10,000 HEK 293T cells, 30 μM substrates, first 2 min integrated", "text": "FIG. 12 is a panel examining the impact of luciferase protein levels on bioluminescence intensities. (12a) Western blot analysis of HEK 293T cells expressing luciferases with C-terminal c-Myc tags. The relative proteins levels quantified from individual bands are shown in parentheses. These enzymes were expressed at different levels but the differences were within 3-fold. […] Under this condition, two luciferases in the same vectors are expected to be expressed near-stoichiometrically.", "data": [{"molecule": "B1", "values": [{"measurement": "bioluminescence relative to FLuc, P2A bicistronic vectors", "value": "Large bioluminescence enhancements"}]}]}
